How the values were obtained:
[1] = molecular target: human VEGFA (Cat. No. Z03073, Genscript) (human) (UniProt P15692); assay: competition ELISA, Eylea coated as competitor, 5 nM VEGFA dimer pre-incubated with Conbercept
[2] = molecular target: human VEGFA (Cat. No. Z03073, Genscript) (human) (UniProt P15692); assay: competition ELISA: plate coated with Eylea, Conbercept in dilution series pre-incubated with 5 nM VEGFA, VEGFA bound to Eylea detected. The sheet prints ng/mL, the text prints nM
[3] = molecular target: human VEGFA (Cat. No. Z03073, Genscript) (human) (UniProt P15692)
[4] = molecular target: human VEGFA (Cat. No. Z03073, Genscript) (human) (UniProt P15692); assay: ELISA, plate coated with VEGFA, detection with HRP anti-human IgG
[5] = molecular target: human VEGFA (Cat. No. Z03073, Genscript) (human) (UniProt P15692); assay: SPR (Biacore), protein captured on protein A chip, VEGFA as analyte, 25 C

Chain of human VEGFA (Cat. No. Z03073, Genscript) (human) (P15692 other isoform, or with tags, fused parts or gaps limits assumed): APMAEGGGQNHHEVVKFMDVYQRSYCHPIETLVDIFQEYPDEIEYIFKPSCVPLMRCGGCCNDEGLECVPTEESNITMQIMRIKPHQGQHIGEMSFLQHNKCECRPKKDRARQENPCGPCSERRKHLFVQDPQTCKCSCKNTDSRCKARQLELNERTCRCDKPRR
Chain of Eylea (Fc fusion) (chain): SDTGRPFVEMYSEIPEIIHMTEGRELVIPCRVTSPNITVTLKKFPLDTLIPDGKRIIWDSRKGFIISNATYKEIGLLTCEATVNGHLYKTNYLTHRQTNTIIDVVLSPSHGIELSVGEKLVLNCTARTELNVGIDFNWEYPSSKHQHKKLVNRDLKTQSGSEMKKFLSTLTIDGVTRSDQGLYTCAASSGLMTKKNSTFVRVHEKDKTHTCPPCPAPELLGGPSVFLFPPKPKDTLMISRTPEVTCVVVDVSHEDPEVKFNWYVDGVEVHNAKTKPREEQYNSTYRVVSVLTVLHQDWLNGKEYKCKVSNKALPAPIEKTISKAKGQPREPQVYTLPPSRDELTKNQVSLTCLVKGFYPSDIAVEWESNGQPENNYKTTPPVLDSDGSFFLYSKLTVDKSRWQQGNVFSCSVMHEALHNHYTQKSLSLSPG
Chain of Conbercept eye injection (Fc fusion) (chain): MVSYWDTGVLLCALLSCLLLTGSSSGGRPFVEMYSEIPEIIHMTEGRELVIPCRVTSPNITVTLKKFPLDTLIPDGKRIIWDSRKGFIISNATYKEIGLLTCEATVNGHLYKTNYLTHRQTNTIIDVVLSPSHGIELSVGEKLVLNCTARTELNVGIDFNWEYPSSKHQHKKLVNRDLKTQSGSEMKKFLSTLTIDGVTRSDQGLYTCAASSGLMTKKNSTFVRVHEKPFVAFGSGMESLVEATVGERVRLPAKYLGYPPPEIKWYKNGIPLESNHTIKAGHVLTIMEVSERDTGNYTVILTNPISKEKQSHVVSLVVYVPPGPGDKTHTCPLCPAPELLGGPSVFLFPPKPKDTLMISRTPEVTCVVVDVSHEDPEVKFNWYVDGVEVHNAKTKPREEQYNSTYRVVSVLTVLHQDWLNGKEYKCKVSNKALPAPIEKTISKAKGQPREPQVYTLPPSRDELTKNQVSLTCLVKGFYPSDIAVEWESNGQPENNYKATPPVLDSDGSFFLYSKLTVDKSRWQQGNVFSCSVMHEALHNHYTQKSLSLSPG

| IC50 [1] | IC50 [2] | IC50 (inhibition of VEGFA-induced HUVEC proliferation, CellTiter-Glo) [3] | EC50 (read off the curve) [4] | Kd [5] | Substance |
| --- | --- | --- | --- | --- | --- |
| 16.9 nM | 0.0169 µg/mL | – | – | – | Conbercept eye injection (Fc fusion) |
| – | – | 0.0045 µg/mL | 0.07 µg/mL | 0.0361 nM | Eylea (Fc fusion) |
